Results taken from publication PMC6995525, “Structure of the PUB Domain from Ubiquitin Regulatory X Domain Protein 1 (UBXD1) and Its Interaction with the p97 AAA+ ATPase” (Biomolecules, 2019).
Numbering of substitutions follows the chain as printed. No end group written: not given here.

B1: UBXD1-PUB (150–264) (domain or fragment, UniProt Q9BZV1 150-264, looked up)
chain: STDPVAASIMKIYTFNKDQDRVKLGVDTIAKYLDNIHLHPEEEKYRKIKLQNKVFQERINCLEGTHEFFEAIGFQKVLLPAQDQEDPEEFYVLSETTLAQPQSLERHKEQLLAAE
notes: UBXD1 (ubiquitin regulatory X domain protein 1), PUB domain construct, residues 150-264; Cloned into pET28a (NdeI/HindIII); a few vector residues probably remain after thrombin cleavage (surmised); Theoretical MW 13.80 kDa; 15N- or 13C,15N-labelled for NMR; also called UBXD1-PUB wt; wild type (wt); source: E. coli Rosetta2, purified (Ni-NTA, thrombin cleavage of the tag, SEC); not shown: His6, …
B2: 5,6-FAM-labeled p97-C10 peptide (peptide)
peptide: TEDNDDDLYG
modifications: also: 5,6-FAM label, position not given here
notes: source: synthetic peptide, bought: Caslo ApS (Denmark)
B3: p97-C10 peptide (unlabeled) (peptide)
peptide: TEDNDDDLYG
notes: also called p97-PIM; p97-C10 PIM peptide; source: synthetic peptide, bought: Caslo ApS (Denmark)

How the values were obtained:
Conditions in all cases: both partners purified
[1] = molecular target: T1, full-length p97 (UniProt P55072 1-806); assay: fluorescence polarisation; fluorescence anisotropy of UBXD1-PUB wt with full length p97; which partner was labeled and titrated is not told
T1 construct: AAA+ ATPase p97 / valosin-containing protein (VCP) / Cdc48, full length; Cloning, tags and purification of p97-fl are not described; the methods say only that 'all proteins were expressed in Escherichia coli Rosetta2' and purified by Ni-NTA and SEC after thrombin cleavage; also called p97-fl; VCP
T1 sequence (P55072 whole entry): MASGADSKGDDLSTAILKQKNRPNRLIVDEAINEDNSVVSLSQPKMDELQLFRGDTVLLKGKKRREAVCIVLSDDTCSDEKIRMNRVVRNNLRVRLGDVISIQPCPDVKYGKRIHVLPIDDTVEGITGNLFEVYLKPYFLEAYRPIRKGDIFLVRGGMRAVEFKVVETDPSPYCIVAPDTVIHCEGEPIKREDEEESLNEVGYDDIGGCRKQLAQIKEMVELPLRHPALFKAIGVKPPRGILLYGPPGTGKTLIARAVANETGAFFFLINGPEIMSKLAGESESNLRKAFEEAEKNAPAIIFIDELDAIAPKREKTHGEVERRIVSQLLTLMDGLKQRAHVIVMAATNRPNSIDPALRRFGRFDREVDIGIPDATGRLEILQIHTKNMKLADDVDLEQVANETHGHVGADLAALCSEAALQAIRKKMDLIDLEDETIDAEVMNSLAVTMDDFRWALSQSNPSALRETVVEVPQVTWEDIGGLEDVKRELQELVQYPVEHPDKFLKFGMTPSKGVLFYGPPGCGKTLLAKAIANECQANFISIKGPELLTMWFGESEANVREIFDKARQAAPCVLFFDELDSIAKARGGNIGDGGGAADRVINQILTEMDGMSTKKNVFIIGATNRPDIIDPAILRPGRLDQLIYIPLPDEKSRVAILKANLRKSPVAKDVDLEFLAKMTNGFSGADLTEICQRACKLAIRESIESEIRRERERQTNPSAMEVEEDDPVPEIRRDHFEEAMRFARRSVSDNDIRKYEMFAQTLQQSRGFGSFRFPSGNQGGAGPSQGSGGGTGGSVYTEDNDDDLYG

[2] = molecular target: T2, UBXD1-PUB (150–264) N201D (UniProt Q9BZV1 150-264, N201D); assay: fluorescence polarisation; fluorescence anisotropy; PUB constructs titrated to 100 nM 5,6-FAM labeled p97-C10 peptide; 50 mM NaKPi pH 6.5, 25 °C; triplicate; one-site quadratic fit
T2 construct: UBXD1 PUB domain construct, residues 150-264, point mutant; source: E. coli Rosetta2, purified (Ni-NTA, thrombin cleavage of the tag, SEC); not shown: His6, N-terminal, cleaved
T2 sequence (looked up): B1 chain with N52D

[3] = molecular target: T3, UBXD1-PUB (150–264) E206R (UniProt Q9BZV1 150-264, E206R); assay: as above
T3 construct: UBXD1 PUB domain construct, residues 150-264, point mutant; source: E. coli Rosetta2, purified (Ni-NTA, thrombin cleavage of the tag, SEC); not shown: His6, N-terminal, cleaved
T3 sequence (looked up): B1 chain with E57R

[4] = molecular target: T4, UBXD1-PUB (150–264) R207E (UniProt Q9BZV1 150-264, R207E); assay: as above
T4 construct: UBXD1 PUB domain construct, residues 150-264, point mutant; source: E. coli Rosetta2, purified (Ni-NTA, thrombin cleavage of the tag, SEC); not shown: His6, N-terminal, cleaved
T4 sequence (looked up): B1 chain with R58E

[5] = molecular target: T5, UBXD1-PUB (150–264) N184A (UniProt Q9BZV1 150-264, N184A); assay: as above
T5 construct: UBXD1 PUB domain construct, residues 150-264, point mutant; source: E. coli Rosetta2, purified (Ni-NTA, thrombin cleavage of the tag, SEC); not shown: His6, N-terminal, cleaved
T5 sequence (looked up): B1 chain with N35A

[6] = molecular target: T6, UBXD1-PUB (150–264) Y194A (UniProt Q9BZV1 150-264, Y194A); assay: as above
T6 construct: UBXD1 PUB domain construct, residues 150-264, point mutant; source: E. coli Rosetta2, purified (Ni-NTA, thrombin cleavage of the tag, SEC); not shown: His6, N-terminal, cleaved
T6 sequence (looked up): B1 chain with Y45A

[7] = molecular target: T7, UBXD1-PUB (150–264) K193E (UniProt Q9BZV1 150-264, K193E); assay: as above
T7 construct: UBXD1 PUB domain construct, residues 150-264, point mutant; source: E. coli Rosetta2, purified (Ni-NTA, thrombin cleavage of the tag, SEC); not shown: His6, N-terminal, cleaved
T7 sequence (looked up): B1 chain with K44E

[8] = molecular target: T8, UBXD1-PUB (150–264) N184D (UniProt Q9BZV1 150-264, N184D); assay: as above
T8 construct: UBXD1 PUB domain construct, residues 150-264, point mutant; source: E. coli Rosetta2, purified (Ni-NTA, thrombin cleavage of the tag, SEC); not shown: His6, N-terminal, cleaved
T8 sequence (looked up): B1 chain with N35D

[9] = molecular target: T9, UBXD1-PUB (150–264) N201A (UniProt Q9BZV1 150-264, N201A); assay: as above
T9 construct: UBXD1 PUB domain construct, residues 150-264, point mutant; source: E. coli Rosetta2, purified (Ni-NTA, thrombin cleavage of the tag, SEC); not shown: His6, N-terminal, cleaved
T9 sequence (looked up): B1 chain with N52A

[10] = molecular target: T10, UBXD1-PUB (150–264) V203A (UniProt Q9BZV1 150-264, V203A); assay: as above
T10 construct: UBXD1 PUB domain construct, residues 150-264, point mutant; source: E. coli Rosetta2, purified (Ni-NTA, thrombin cleavage of the tag, SEC); not shown: His6, N-terminal, cleaved
T10 sequence (looked up): B1 chain with V54A

[11] = molecular target: B1; assay: as above
[12] = molecular target: T11, UBXD1-PUB (150–264) Y181A (UniProt Q9BZV1 150-264, Y181A); assay: as above
T11 construct: UBXD1 PUB domain construct, residues 150-264, point mutant; source: E. coli Rosetta2, purified (Ni-NTA, thrombin cleavage of the tag, SEC); not shown: His6, N-terminal, cleaved
T11 sequence (looked up): B1 chain with Y32A

[13] = molecular target: T12, UBXD1-PUB (150–264) Y181F (UniProt Q9BZV1 150-264, Y181F); assay: as above
T12 construct: UBXD1 PUB domain construct, residues 150-264, point mutant; source: E. coli Rosetta2, purified (Ni-NTA, thrombin cleavage of the tag, SEC); not shown: His6, N-terminal, cleaved
T12 sequence (looked up): B1 chain with Y32F

[14] = molecular target: T13, UBXD1-PUB (150–264) Y194F (UniProt Q9BZV1 150-264, Y194F); assay: as above
T13 construct: UBXD1 PUB domain construct, residues 150-264, point mutant; source: E. coli Rosetta2, purified (Ni-NTA, thrombin cleavage of the tag, SEC); not shown: His6, N-terminal, cleaved
T13 sequence (looked up): B1 chain with Y45F

[15] = molecular target: T14, UBXD1-PUB (150–264) K198E (UniProt Q9BZV1 150-264, K198E); assay: as above
T14 construct: UBXD1 PUB domain construct, residues 150-264, point mutant; source: E. coli Rosetta2, purified (Ni-NTA, thrombin cleavage of the tag, SEC); not shown: His6, N-terminal, cleaved
T14 sequence (looked up): B1 chain with K49E

[16] = molecular target: T15, UBXD1-PUB (150–264) Q200A (UniProt Q9BZV1 150-264, Q200A); assay: as above
T15 construct: UBXD1 PUB domain construct, residues 150-264, point mutant; source: E. coli Rosetta2, purified (Ni-NTA, thrombin cleavage of the tag, SEC); not shown: His6, N-terminal, cleaved
T15 sequence (looked up): B1 chain with Q51A

[17] = molecular target: B1; assay: ITC; UBXD1-PUB (100 µM) titrated with 1 mM p97-C10 peptide; 50 mM NaKPi pH 6.5, 25 °C; single-site model; triplicate, parameters averaged

Question: How did the Kd [1] turn out when B1 was run?
Answer: 8.4 µM

Question: For B2, which Kd [2] is on record?
Answer: 280 µM

Question: And the Kd [3]?
Answer: 39.4 µM

Question: What about the Kd [4] of the same binder?
Answer: 88 µM

Question: And the Kd [5]?
Answer: 28.7 µM

Question: And the Kd [6]?
Answer: 53 µM

Question: And the Kd [7]?
Answer: 17.7 µM

Question: And the Kd [8]?
Answer: 80 µM

Question: And the Kd [9]?
Answer: 64.1 µM

Question: And the Kd [10]?
Answer: 25.3 µM

Question: And the Kd [11]?
Answer: 13.8 µM

Question: And the Kd [12]?
Answer: 111 µM

Question: And the Kd [13]?
Answer: 28.4 µM

Question: And the Kd [14]?
Answer: 141 µM

Question: And the Kd [15]?
Answer: 49.3 µM

Question: And the Kd [16]?
Answer: 8.3 µM

Question: What does the source list for B3?
Answer: Kd [17]: 15 ± 5 µM; dH [17]: -3.25 ± 0.483 kcal/mol; stoichiometry N [17]: 1.1 ± 0.2
